Results taken from patent US20050282743A1, “Molecular interactions in cells” (Arbor Vita Corporation, priority 2001, published 2005).
Ends that are not written are not given here. * marks the point of attachment. Biotin = O=C1N[C@H]2[C@H](CS[C@H]2CCCCC(=O)*)N1

Experiments:
Experiment in all cases: G' assay (10 uM PL peptide), results of TABLE 7 and TABLE 12
Type in all cases: binding
[1] = molecular target: T1, PDZ protein (GST-PDZ fusion) (Homo sapiens, UniProt Q13796); conditions: PDZ hAPXL, PDZ Domain 1
T1 construct: made in house; host or cells: E. coli (DH5alpha, BL21 or JM109)
In short: (§1)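 Biotinylated PL peptides at 10 uM (vs 20 uM in G^0 assay) bound to GST-PDZ fusions; PDZ protein at 5 ug/ml unless another concentration listed. Bound peptide read as A450 nm, classified 0–5 (0 = A450 0; 5 = A450 >4 repeated).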

[2] = molecular target: T2, PDZ protein (GST-PDZ fusion) (Homo sapiens, UniProt O14907); conditions: PDZ TIP1, PDZ Domain 1
T2 construct: made in house; host or cells: E. coli (DH5alpha, BL21 or JM109)
T2 sequence (O14907 1-124): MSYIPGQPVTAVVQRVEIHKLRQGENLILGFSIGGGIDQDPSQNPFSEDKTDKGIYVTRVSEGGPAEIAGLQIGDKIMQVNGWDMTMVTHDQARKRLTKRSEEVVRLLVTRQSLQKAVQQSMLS
In short: as §1

[3] = molecular target: T3, PDZ protein (GST-PDZ fusion) (Homo sapiens, UniProt P57105); conditions: PDZ Outer Membrane, PDZ Domain 1
T3 construct: made in house; host or cells: E. coli (DH5alpha, BL21 or JM109)
T3 sequence (P57105 1-145): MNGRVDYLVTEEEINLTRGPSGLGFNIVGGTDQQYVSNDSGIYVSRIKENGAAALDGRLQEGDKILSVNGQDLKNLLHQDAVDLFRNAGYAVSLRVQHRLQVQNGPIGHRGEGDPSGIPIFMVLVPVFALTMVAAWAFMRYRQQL
In short: as §1

[4] = molecular target: T4, PDZ protein (GST-PDZ fusion) (Homo sapiens, UniProt Q8NI35); conditions: PDZ INADL
T4 construct: made in house; host or cells: E. coli (DH5alpha, BL21 or JM109)
In short: as §1

[5] = molecular target: T5, PDZ protein (GST-PDZ fusion) (Homo sapiens, UniProt O15018); conditions: PDZ AIPC, PDZ Domain 1
T5 construct: made in house; host or cells: E. coli (DH5alpha, BL21 or JM109)
In short: as §1

[6] = molecular target: T6, PDZ protein (GST-PDZ fusion) (Homo sapiens, UniProt P78352)
T6 construct: made in house; host or cells: E. coli (DH5alpha, BL21 or JM109)
In short: as §1

[7] = molecular target: T7, PDZ protein (GST-PDZ fusion) (Homo sapiens, UniProt Q12959)
T7 construct: made in house; host or cells: E. coli (DH5alpha, BL21 or JM109)
In short: as §1

[8] = molecular target: T8, PDZ protein (GST-PDZ fusion) (Homo sapiens, UniProt Q14160); conditions: PDZ KIAA0147, PDZ Domain 1
T8 construct: made in house; host or cells: E. coli (DH5alpha, BL21 or JM109)
In short: as §1

[9] = molecular target: T9, PDZ protein (GST-PDZ fusion) (Homo sapiens, UniProt Q15700); conditions: PDZ DLG2, PDZ Domain 2
T9 construct: made in house; host or cells: E. coli (DH5alpha, BL21 or JM109)
In short: as §1

T7 sequence (Q12959 whole entry, the tested form may be a part): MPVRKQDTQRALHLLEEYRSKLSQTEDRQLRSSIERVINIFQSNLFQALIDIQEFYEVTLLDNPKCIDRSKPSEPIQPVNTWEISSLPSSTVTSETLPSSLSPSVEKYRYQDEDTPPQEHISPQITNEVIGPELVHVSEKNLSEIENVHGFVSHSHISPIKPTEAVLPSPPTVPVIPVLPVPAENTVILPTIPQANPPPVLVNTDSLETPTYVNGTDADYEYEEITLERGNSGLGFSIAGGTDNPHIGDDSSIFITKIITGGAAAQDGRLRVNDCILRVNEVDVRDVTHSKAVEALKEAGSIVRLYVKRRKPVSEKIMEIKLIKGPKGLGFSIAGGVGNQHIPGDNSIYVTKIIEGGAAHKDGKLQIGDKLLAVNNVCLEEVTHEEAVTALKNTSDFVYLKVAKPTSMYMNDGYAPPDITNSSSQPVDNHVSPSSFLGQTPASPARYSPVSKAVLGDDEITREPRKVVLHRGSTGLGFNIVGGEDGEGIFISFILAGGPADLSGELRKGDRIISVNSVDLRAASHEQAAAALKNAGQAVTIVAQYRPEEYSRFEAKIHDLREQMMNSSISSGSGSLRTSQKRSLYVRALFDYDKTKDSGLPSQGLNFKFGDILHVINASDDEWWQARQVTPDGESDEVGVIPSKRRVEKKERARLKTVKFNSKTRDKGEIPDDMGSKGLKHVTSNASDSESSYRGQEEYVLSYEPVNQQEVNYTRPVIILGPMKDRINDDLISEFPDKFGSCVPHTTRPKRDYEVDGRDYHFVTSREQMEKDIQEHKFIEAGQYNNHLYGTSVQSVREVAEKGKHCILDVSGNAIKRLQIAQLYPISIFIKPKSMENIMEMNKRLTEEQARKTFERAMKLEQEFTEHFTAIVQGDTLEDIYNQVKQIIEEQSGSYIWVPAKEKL
T5 sequence (O15018 whole entry, the tested form may be a part): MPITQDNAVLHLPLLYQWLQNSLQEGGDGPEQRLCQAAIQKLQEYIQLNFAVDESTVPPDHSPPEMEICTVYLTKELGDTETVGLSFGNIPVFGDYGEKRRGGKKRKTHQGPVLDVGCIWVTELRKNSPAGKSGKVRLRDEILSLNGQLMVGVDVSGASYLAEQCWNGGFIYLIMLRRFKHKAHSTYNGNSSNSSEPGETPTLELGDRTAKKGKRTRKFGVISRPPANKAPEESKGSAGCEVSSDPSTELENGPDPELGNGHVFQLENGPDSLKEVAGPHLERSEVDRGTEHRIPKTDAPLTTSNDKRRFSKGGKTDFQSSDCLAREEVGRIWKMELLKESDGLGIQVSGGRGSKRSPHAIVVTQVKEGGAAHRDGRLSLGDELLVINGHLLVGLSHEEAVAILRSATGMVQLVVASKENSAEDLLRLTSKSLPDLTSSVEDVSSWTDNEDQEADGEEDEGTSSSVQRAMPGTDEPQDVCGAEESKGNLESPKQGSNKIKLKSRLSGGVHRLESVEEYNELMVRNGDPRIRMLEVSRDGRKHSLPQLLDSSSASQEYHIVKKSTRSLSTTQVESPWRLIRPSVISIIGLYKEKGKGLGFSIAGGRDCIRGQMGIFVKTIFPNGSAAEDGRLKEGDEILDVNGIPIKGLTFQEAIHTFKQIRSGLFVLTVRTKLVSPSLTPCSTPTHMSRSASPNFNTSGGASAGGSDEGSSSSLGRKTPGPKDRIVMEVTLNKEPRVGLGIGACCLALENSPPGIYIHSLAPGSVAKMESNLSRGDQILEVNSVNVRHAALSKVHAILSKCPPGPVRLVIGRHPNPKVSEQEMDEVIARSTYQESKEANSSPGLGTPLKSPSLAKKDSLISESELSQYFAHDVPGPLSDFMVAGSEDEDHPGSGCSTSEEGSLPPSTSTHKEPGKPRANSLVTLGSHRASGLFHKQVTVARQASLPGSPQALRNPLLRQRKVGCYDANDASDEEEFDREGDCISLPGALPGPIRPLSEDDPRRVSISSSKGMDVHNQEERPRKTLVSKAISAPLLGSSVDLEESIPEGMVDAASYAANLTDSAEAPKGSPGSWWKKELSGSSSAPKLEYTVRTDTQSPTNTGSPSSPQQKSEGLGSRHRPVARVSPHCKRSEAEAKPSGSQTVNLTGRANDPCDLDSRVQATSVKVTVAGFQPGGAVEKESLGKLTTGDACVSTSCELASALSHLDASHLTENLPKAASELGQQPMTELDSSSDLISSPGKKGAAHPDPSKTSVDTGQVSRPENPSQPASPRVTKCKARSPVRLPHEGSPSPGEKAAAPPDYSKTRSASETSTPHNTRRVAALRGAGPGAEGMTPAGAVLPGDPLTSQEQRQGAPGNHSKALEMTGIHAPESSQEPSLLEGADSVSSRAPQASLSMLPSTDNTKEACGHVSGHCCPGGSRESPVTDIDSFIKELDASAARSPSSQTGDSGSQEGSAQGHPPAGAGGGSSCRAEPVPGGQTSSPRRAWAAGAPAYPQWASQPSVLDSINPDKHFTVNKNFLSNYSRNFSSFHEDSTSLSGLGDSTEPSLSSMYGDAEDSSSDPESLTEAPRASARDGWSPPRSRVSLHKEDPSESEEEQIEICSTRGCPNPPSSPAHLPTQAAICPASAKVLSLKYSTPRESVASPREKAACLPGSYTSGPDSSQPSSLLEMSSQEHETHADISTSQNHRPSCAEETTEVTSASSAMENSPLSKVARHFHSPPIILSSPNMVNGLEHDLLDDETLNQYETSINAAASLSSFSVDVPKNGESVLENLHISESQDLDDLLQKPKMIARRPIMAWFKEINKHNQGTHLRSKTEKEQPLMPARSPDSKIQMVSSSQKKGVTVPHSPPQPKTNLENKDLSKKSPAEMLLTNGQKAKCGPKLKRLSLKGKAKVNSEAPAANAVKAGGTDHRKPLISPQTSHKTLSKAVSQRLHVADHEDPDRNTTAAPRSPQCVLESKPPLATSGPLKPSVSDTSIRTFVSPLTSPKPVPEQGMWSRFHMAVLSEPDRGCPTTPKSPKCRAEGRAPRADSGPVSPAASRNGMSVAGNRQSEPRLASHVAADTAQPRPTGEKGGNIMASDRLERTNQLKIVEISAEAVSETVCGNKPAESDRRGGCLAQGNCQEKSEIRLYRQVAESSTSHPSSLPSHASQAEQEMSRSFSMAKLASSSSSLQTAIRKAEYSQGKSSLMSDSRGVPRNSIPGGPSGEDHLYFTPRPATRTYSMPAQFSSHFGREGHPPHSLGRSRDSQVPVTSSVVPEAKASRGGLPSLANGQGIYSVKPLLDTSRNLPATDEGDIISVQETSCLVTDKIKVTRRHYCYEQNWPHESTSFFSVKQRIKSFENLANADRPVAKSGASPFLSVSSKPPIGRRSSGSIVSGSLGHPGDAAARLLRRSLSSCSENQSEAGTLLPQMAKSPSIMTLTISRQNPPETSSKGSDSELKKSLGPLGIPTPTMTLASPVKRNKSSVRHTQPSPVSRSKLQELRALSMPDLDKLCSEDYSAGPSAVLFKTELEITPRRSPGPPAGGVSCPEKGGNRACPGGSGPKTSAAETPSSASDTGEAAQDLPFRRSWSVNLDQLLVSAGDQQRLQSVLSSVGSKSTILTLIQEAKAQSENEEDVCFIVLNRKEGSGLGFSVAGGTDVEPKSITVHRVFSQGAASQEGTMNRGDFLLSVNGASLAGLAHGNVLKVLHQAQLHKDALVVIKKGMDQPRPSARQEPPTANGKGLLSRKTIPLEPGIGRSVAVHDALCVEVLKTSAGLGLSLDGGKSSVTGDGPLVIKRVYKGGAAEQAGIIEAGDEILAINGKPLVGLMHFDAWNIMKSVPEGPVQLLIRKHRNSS
T6 sequence (P78352 whole entry, the tested form may be a part): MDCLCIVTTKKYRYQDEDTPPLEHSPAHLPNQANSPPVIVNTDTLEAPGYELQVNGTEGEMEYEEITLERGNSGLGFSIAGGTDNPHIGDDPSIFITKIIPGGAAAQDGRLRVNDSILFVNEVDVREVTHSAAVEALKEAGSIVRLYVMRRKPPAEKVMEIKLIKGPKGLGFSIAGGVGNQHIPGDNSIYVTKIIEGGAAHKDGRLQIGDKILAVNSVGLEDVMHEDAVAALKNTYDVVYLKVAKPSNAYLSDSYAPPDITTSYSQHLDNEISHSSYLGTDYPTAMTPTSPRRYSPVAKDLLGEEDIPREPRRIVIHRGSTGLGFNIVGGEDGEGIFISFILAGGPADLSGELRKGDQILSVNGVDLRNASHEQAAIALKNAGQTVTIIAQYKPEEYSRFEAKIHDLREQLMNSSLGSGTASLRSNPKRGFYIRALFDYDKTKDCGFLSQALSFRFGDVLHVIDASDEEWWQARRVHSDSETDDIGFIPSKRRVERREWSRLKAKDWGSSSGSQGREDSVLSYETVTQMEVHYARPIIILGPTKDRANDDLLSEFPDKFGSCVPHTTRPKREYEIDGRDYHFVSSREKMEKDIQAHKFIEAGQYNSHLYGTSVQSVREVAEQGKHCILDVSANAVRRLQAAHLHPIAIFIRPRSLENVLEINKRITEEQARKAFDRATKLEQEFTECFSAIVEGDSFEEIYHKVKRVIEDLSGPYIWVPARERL

“A2AC_HUMAN (Modified) (Biotin-DFRPSFKHILFRRARRGFRQ; not fully specified)” was tested, and the Classification [1] was 3 (A450 nm 2-3).
With “ARHRVTSYTSSSVNVSSNL (Biotin-ARHRVTSYTSSSVNVSSNL) [IL-8RB]” the Classification [2] was 1 (A450 nm 0-1).
“PPATPSPRLALPAHHNATRL (Biotin-PPATPSPRLALPAHHNATRL) [Na+/Pi cotransporter 2]” was tested, and the Classification [3] was 1 (A450 nm 0-1), the Classification [1] was 1 (A450 nm 0-1) and the Classification ([4]; PDZ Domain 8) was 1 (A450 nm 0-1).
With “GGGGGSGGGGGSGIESVKI [GLUR2 (glutamate receptor 2-modified)]” the Classification [5] was 2 (A450 nm 1-2), the Classification ([6]; PDZ PSD95, PDZ Domain 1, 2, 3) was 2 (A450 nm 1-2) and the Classification ([7]; PDZ DLG1, PDZ Domain 1, 2) was 2 (A450 nm 1-2). For the same substance, the Classification ([7]; PDZ DLG1, PDZ Domain 2) was 1 (A450 nm 0-1), the Classification [8] was 1 (A450 nm 0-1) and the Classification [9] was 1 (A450 nm 0-1).
In the case of “GPVPGEPAKPKTSAHHATFV (Biotin-GPVPGEPAKPKTSAHHATFV)”, the Classification [2] was 1 (A450 nm 0-1) and the Classification ([7]; PDZ DLG1, PDZ Domain 1, 2) was 1 (A450 nm 0-1).
“ISGTPTSTMVHGMTSSSSVV (Biotin-ISGTPTSTMVHGMTSSSSVV) [Clasp-2]” was tested, and the Classification [5] was 1 (A450 nm 0-1), the Classification [3] was 1 (A450 nm 0-1) and the Classification ([6]; PDZ PSD95, PDZ Domain 1) was 1 (A450 nm 0-1). The Classification ([7]; PDZ DLG1, PDZ Domain 1) was 1 (A450 nm 0-1), the Classification ([7]; PDZ DLG1, PDZ Domain 2) was 1 (A450 nm 0-1) and the Classification ([4]; PDZ Domain 8) was 1 (A450 nm 0-1).
With “ALVLIAFCIIRRRPSAYQAL (Biotin-ALVLIAFCIIRRRPSAYQAL) [CD68]” the Classification [1] was 2 (A450 nm 1-2).
In the case of CKR5_HUMAN (ERASSVYTRSTGEQEISVGL), the Classification [2] was 1 (A450 nm 0-1).
With “A2AA_HUMAN (modified) (Biotin-HDFRRAFKKILARGDRKRIV; not fully specified)” the Classification [5] was 2 (A450 nm 1-2), the Classification [1] was 1 (A450 nm 0-1) and the Classification ([4]; PDZ Domain 3) was 2 (A450 nm 1-2). For the same substance, the Classification ([4]; PDZ Domain 4) was 1 (A450 nm 0-1).
